Assay results taken from patent publication US20120094909A1 (Bristol-Myers Squibb, published 2012).
Where a chain is given by its changes, count along the chain named. Names and notes keep the numbering of the source.

B1: 2382B09 (designed binder)
chain: MGVSDVPRDLEVVAATPTSLLISWDAPADAYGYYRITYGETGGNSPVQEFTVPVSKGTATISGLKPGVDYTITVYAVEFDYPGSGYYHRPISINYRTEIDKPSQHHHHHH
notes: Anti-PCSK9 Adnectin, His6-tagged
B2: 2382B10 (designed binder)
chain: B1 chain with V54S, F79Y, Y81F
notes: as for B1
B3: 2382C09 (designed binder)
chain: B1 chain with D29E, A30G, Y81F
notes: as for B1
B4: 2382D09 (designed binder)
chain: B1 chain with D29E, A30G, Y81F, S84A
notes: as for B1
B5: 1922G04(R25D) (designed binder)
chain: MGVSDVPRDLEVVAATPTSLLISWDPPSHAYGYYRITYGETGGNSPVQEFTVPIGKGTATISGLKPGVDYTITVYAVEYPWKGSGYYHRPISINYRTGSGSHHHHHH
notes: Anti-PCSK9 Adnectin, GSGS-His6 tail; the entry already carries the substitution
B6: 1922G04(R25E) (designed binder)
chain: B5 chain with D25E
notes: as for B5
B7: 2382B09 (designed binder)
chain: B1 chain
B8: 2382B10 (designed binder)
chain: B1 chain with V54S, F79Y, Y81F
B9: 2382C09 (designed binder)
chain: B1 chain with D29E, A30G, Y81F
B10: 2382D09 (designed binder)
chain: B1 chain with D29E, A30G, Y81F, S84A
B11: 2382H09 (designed binder)
chain: B1 chain with D29A, V54S, Y81F
B12: 2382H10 (designed binder)
chain: B1 chain with D29G, A30G, Y81F
B13: 2381B02 (designed binder)
chain: MGVSDVPRDLEVVAATPTSLLISWEPFSRLPGGGEYYRITYGETGGNSPLQQFTVPGSKGTATISGLKPGVDYTITVYAVEYPYDYSGYYHRPISINYRTEIDKPSQHHHHHH
B14: 2381B04 (designed binder)
chain: B13 chain with D85E, Y86H
B15: 2381D04 (designed binder)
chain: B13 chain with Y82F, Y86H
B16: 2382D05 (designed binder)
chain: MGVSDVPRDLEVVAATPTSLLISWDAPADGGYGYYRITYGETGGNSPVQEFTVPVSKGTATISGLKPGVDYTITVYAVEFDFPGAGYYHRPISINYRTEIDKPSQHHHHHH
B17: 2381B08 (designed binder)
chain: B16 chain with V55S, F80Y, D81T
B18: 2381F11 (designed binder)
chain: B16 chain with G58S, F80Y, D81T
B19: 2381G09 (designed binder)
chain: B16 chain with D29G, G30D, D81T
B20: 2381H09 (designed binder)
chain: B16 chain with D29G, P83V
B21: 2382C05 (designed binder)
chain: B16 chain with G31A, F80Y, D81S
B22: 2382D03 (designed binder)
chain: B16 chain with G30E, G31A
B23: 2382E03 (designed binder)
chain: B16 chain with D29G, G30D
B24: 2382E05 (designed binder)
chain: B16 chain with D29E
B25: 2382G04 (designed binder)
chain: B16 chain with D29G, V55S
B26: 2382H03 (designed binder)
chain: B16 chain with D29E, G31A, F80Y, D81P, F82Y, G84F
B27: 2382F05 (designed binder)
chain: MGVSDVPRDLEVVAATPTSLLISWDAPAEAGKHYGYYRITYGETGGNSPVQEFTVPVSKGTATISGLKPGVDYTITVYAVEFDFPGAGYYHRPISINYRTEIDKPSQHHHHHH
B28: 2451C06 (designed binder)
chain: MGVSDVPRDLEVVAATPTSLLISWDAPAGAASYGYYRITYGETGGNSPVQEFTVPVSKGTATISGLKPGVDYTITVYAVEFPFPGAGYYHRPISINYRTEIDKPSQHHHHHH
B29: 2451H07 (designed binder)
chain: MGITDVPRDLEVVAATPTSLLISWNPPDVNYGYYRITYGETGGNSPLQEFTVPVSKGTATISGLKPGVDYTITVYAVEYPYAHAGYYHRPISINYRTEIDKPSQHHHHHH
B30: 2971A03 (designed binder)
chain: B1 chain with A26P, A28S, A30D, V54I, S55G, D80P, Y81W, G83H, S84A
B31: 2971A09 (designed binder)
chain: B1 chain with A30D, V54I, S55G, D80P, Y81W, G83H, S84A
B32: 2971E02 (designed binder)
chain: B1 chain with A28S, A30D, V54I, S55G, D80P, Y81W, G83H, S84A

biological target: T1, human PCSK9 (proprotein convertase subtilisin kexin type 9) (human, UniProt Q8NBP7 31-692); experiment: BLI Octet Red, 37 C
T1 construct: Directly immobilized (SPR ProteOn), biotinylated (BLI), or in solution, depending on the assay; also called hPCSK9
Procedure: (§1) Tips were then immersed into a buffer-only well for observation of Adnectin dissociation. Experiments were performed in a temperature controlled environment at either 25 or 37° C., and the oscillation speed was set at 1500 rpm.
(§2) Binding interaction analysis was performed using proprietary software from Fortebio (Fortebio Data Analysis Software version 6.3.0.36). Global fits were performed for all samples, using a 1:1 binding model. The nature of these global fits constrained all values of concentration to a single pair of association and dissociation rates that were themselves constrained to each other. Affinities (KD), association and dissociation rates were averaged over the various loading levels used in the analysis.

Binder | Kd [nM]
B1 | 0.656
B2 | 2.35
B3 | 0.757
B4 | 0.304

biological target: T1, human PCSK9 (proprotein convertase …); experiment: BLI, biotinylated hPCSK9 on sensor tips
Procedure: as §1, §2

Binder | Kd [nM] | koff [s⁻¹] | kon [M⁻¹ s⁻¹]
B1 | 0.656 | 0.000291 | 451000
B2 | 2.35 | 0.000977 | 394000
B3 | 0.757 | 0.000233 | 349000
B4 | 0.304 | 0.000164 | 533000

biological target: cynomolgus monkey PCSK9 (cynomolgus monkey, UniProt A0A7N9D9N8 150-747); experiment: FRET, competitor EGFA peptide
Description: (§3) Table 11 summarizes the overall data from these three FRET assays.

Binder | EC50 [nM] | IC50 [nM]
B1 | 37.2 | –
B2 | 18.1 | –
B3 | 23.9 | –
B4 | 13.9 | –
B5 | – | 48.1
B6 | – | 58.5

biological target: T1, human PCSK9 (proprotein convertase …); experiment: FRET, competitor EGFA peptide
Description: as §3

Binder | EC50 [nM] | IC50 [nM]
B1 | 3.8 | 3.8
B2 | 3 | 3
B3 | 3.5 | 3.5
B4 | 2.6 | 2.6
B5 | – | 2.5
B6 | – | 3.5

biological target: T1, human PCSK9 (proprotein convertase …); experiment: FRET direct binding, anti-his6 antibody
Description: as §3

Binder | EC50 [nM]
B1 | 4
B2 | 3.1
B3 | 2.9
B4 | 3.7

biological target: T1, human PCSK9 (proprotein convertase …); experiment: FRET, competitor ATI001125
Description: as §3

Binder | IC50 [nM]
B1 | 0.6
B2 | 0.5
B3 | 0.6
B4 | 0.4

biological target: T2, human PCSK9 (proprotein convertase subtilisin kexin type 9) (human, UniProt Q8NBP7 31-692); experiment: PCSK9:EGFA FRET, competitor EGFA peptide
T2 construct: immobilized directly (ProteOn), biotinylated (Octet) or in solution, according to the assay; also called hPCSK9; PCSK9-AF647 (labelled form)

Binder | EC50 [nM]
B7 | 3.8
B8 | 3
B9 | 3.5
B10 | 2.6
B11 | 0.9
B12 | 2.6
B13 | 2.5
B14 | 2.4
B15 | 2.9
B16 | 2.6
B17 | 2.6
B18 | 4
B19 | 3.1
B20 | 3.4
B21 | 4
B22 | 3.3
B23 | 2.4
B24 | 2.8
B25 | 2.9
B26 | 3.4
B27 | 2.4
B28 | 1.2
B29 | 0.2

biological target: T2, human PCSK9 (proprotein convertase …); experiment: cell-based or functional assay

Binder | LDLR Depletion (% inhibition at 75 nM) [%]
B7 | 105
B8 | 100
B9 | 122
B10 | 109
B11 | 101
B12 | 119
B30 | 120
B31 | 132
B32 | 126
B13 | 125
B14 | 122
B15 | 119
B17 | 125
B18 | 110
B19 | 133
B20 | 94.4
B21 | 105
B22 | 80.4
B23 | 89.5
B24 | 104
B25 | 146
B26 | 102
B27 | 72.2
B28 | 89.4
B29 | 88.8

biological target: T2, human PCSK9 (proprotein convertase …); experiment: BLI (Octet Red), 37 C
Procedure: as §1, §2

Binder | Kd [nM]
B7 | 0.656
B8 | 2.35
B9 | 0.757
B10 | 0.304
B11 | 1.86
B12 | 1.4
B30 | 0.806
B31 | 2.79
B32 | 1.78
B13 | 3.29
B14 | 0.527
B15 | 0.237
B16 | 0.314
B17 | 4.11
B18 | 1.59
B19 | 1.12
B20 | 3.23
B21 | 2.49
B22 | 1.53
B23 | 2.94
B24 | 0.604
B25 | 1.11
B26 | 0.677
B27 | 4.54
B28 | 1.27
B29 | 2.08
